The results in this text go back to paper PMC3034650 (FEBS letters, 2010).

The assay addresses T1, Human IκBα(67-287), unhydroxylated (human, UniProt P25963 67-287).
T1 sequence (looked up): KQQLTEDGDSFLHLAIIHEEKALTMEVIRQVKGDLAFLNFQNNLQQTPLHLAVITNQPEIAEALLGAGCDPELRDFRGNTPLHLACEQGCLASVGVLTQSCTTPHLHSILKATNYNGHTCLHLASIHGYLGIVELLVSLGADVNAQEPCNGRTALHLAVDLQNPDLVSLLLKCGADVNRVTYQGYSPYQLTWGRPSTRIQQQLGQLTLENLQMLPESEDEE
The assay can be described thus: SPR.

B1: NFκB (p50(248-321)/p65(190-321)) (complex)
chain 1: LKIVRMDRTAGCVTGGEEIYLLCDKVQKDDIQIRFYEEEENGGVWEGFGDFSPTDVHRQFAIVFKTPKYKDVNI
chain 2: NTAELKICRVNRNSGSCLGGDEIFLLCDKVQKEDIEVYFTGPGWEARGSFSQADVHRQVAIVFRTPPYADPSLQAPVRVSMQLRRPSDRELSEPMEFQYLPDTDDRHRIEEKRKRTYETFKSIMKKSPFNGP
modifications: biotin at the N-terminus
Broadly, the Kd is a measure of binding affinity in units of concentration. Take B1: the Kd was 0.062 ± 0.012 nM.
